This assay deals with GST-BRCA1 (tandem BRCT) M1775R (UniProt P38398). The assay is described as follows: pull-down.

Drawing on paper doi:10.1101/2021.07.21.452842, this text covers fold change of binding against BRCA1 (tandem BRCT) WT for one molecule.

B1: His-GIV-CT (aa 1660-1870) (domain or fragment)
chain: SETLESRHHKIKTGSPGSEVVTLQQFLEESNKLTSVQIKSSSQENLLDEVMKSLSVSSDFLGKDKPVSCGLARSVSGKTPGDFYDRRTTKPEFLRPGPRKTEDTYFISSAGKPTPGTQGKIKLVKESSLSRQSKDSNPYATLPRASSVISTAEGTTRRTSIHDFLTKDSRLPISVDSPPAAADSNTTAASNVDKVQESRNSKSRSREQQSS
For the molecule B1, the fold change of binding against BRCA1 (tandem BRCT) WT is 3 to 5 fold.
